From the nanobody polyreactivity screen of Harvey et al. (2022)

Test: yeast display, Sf9 membrane polyspecificity reagent, FACS + sequencing; frameworks hold sequencing errors
In short: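 In a synthetic yeast display library (Saccharomyces cerevisiae BJ5465), nanobody expression was induced with galactose for 36–48 hours. FACS gates were set low and high (top ~1%) using anti-HA fluorescence for expression and streptavidin fluorescence for binding of the Sf9 membrane reagent. Each polyreactivity label is drawn from the gate of origin.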

Sequence: QVQLVESGGGLVQAGGSLRLSCADSGLIIARNAMVWYRHAPGTERELVAAITRGGSTYYADSVKGSFTISRDNAKNTVYLLMNSLKPEDTAVYYCNARFRRYYYYGMDYWGQGTQVTVSS
- polyreactivity (PSR sort gate): high polyreactivity

Sequence: QVQLVESGGGLVQAGGSLRLSCAASGSTFGSNAMGWYRQEPGKERELVAAITGGGTTSYADSVKGRFTISRDNAKNTVYLQMNSLKPEDTAVYYCNVLFADKSDYWGQGTQVTVSS
- polyreactivity (PSR sort gate): low polyreactivity

Sequence: QVQLVESGGGLVQAGGSLRLSCAASGSIFSGNTMGWYRQAPGKERELVAAISGRGSNTYYADSVKGRFTISRDNAKNTVYLQMNSLKPEDTAVYYCAAPWVVRRTAYDYWGQGTQVTVSS
- polyreactivity (PSR sort gate): high polyreactivity

Sequence: QVQLVESCGGLVQAGGSLRLSCAASGFTFTWNAMGWYRQAPGKERELVAGITRGGSTNYADSVKGRFTISRDNAKNTVYLQMNSLKPEDTAVYYCNVSFYFHHAGYDYWGQGTQVTVSS
- polyreactivity (PSR sort gate): low polyreactivity

Sequence: QVQLVESGGGLVQAGGSLRLSCADTGSTFYNYAMGWYRQAHGKERELVAAISSGGSTNYADSVKGLFTISRDNAKNTVYLKMNSLKPEDTAVYYCARRHRVYTSRIGHDYWGQGTQGTVSS
- polyreactivity (PSR sort gate): low polyreactivity

Sequence: QGQLVESGGCLVQAGGSLRLSCAASGIIFWSYAMGWYRQAPGKERELVAAISRRGGSTSYADSVKGRFTISRDNAKTTVYLQMNSLKPEDTAVYYCAADRYFNPKSYSTEFDYWGQGTQVTVSS
- polyreactivity (PSR sort gate): high polyreactivity

Sequence: QVQLVESGGGLVQAGGSLRLSCAASGRTSGGNAMGWYRQAPGKERELVAAISLRGGGTYYADSVKGRFTISRDNAKNTVYLQMNSLIPEDTAVFYCAAEFTYYGARWGYLGDLDYWGQGTQVTVSS
- polyreactivity (PSR sort gate): high polyreactivity

Sequence: QVQLVESGGGLVQAGGSLRVSCAASGRTCRYYAMGWYRQEHGTEREWVAVISWSGGTTRYADSVKGRFTISRDNAKNTVYIQMNSLKPEDTAVYYCAARVSVWYNYWGQGTQVTVSS
- polyreactivity (PSR sort gate): high polyreactivity

Sequence: QVQLVESGGGLVQEGGSLRLSCAASGFIFSFYVMGWYRQAPGKERELVAAISTSGASTYYADSVKGRFTISRDNAKNTVYLQMNSLKQEDTAVYYCNVVYRYGGYIYWGQGTQVTVSS
- polyreactivity (PSR sort gate): high polyreactivity

Sequence: QVQLVESGGGLVQAGGSLRLSCAASGRTFVGYAMGWYRQAPGKERELVAAMSASGTSTYYADSVKGRFTISRDNAKNTVYLQMNSLKPEDTAVYYCAKAKDLPPRYGSWGQGTQVTVSS
- polyreactivity (PSR sort gate): high polyreactivity

Sequence: QVQLVESGGGLVQAGGSLRLSCAASGSTFKRYVMGWYRQAPGKERELVAAISSRGGSTYYADSVKGRFTISRDNAKNTVYLQMNSLKPEDTAVYYCASANVRAEDYWGQGTQVTVSS
- polyreactivity (PSR sort gate): high polyreactivity

Sequence: QVQLVESGGGLVQAGGSLRLSCAASGRNFWYYAMGWYRQAPGKERELVAGITYGDGSTYYADSVKGRFTISRDNAKNTVYLQMNSLKPEDTAVYYCAVDLRSYWFRYGFDYWGQGTQVTVSS
- polyreactivity (PSR sort gate): low polyreactivity

Sequence: QVQLVESGGGLVQAGGSLRLSCAASGYTIRKNAMGWYRQAPGKERELVAAMSRSGGSTYYADSVKGRFTISRDNAKNIVYLQMNSLKPEDTAVYYCNTRYPYYWPMYGYWGQGTQVTVSS
- polyreactivity (PSR sort gate): high polyreactivity

Sequence: QVQLVESGGGLVQAGGSLRLSCAASGSTLYYYAMGWYRQAPGKERELVASITGSGGNTYYADSVKGRFTISRDNAKNTVYLQMNSLKPEDTAVYYCAKRHFYRHGAYGYWGQGTQVTVSS
- polyreactivity (PSR sort gate): high polyreactivity

Sequence: QVQLVESGGGLVQAGGSLRLSCAASGFTLYRYVMGWYRQAPGKERELVAAITWSGGSTYYADSVKGRFTISRDNAKNTVYLQMNSLKPEDTAVYYCAARLNVRGWGQGTQVTVSS
- polyreactivity (PSR sort gate): low polyreactivity

Sequence: QVQLVESGGGLVQAGGSLRLSCAASGSTLGAYAMGWYRQAPGKERELVAAISRSGGNTYYADSVKGRFTISRDNAKNTVYLQMNSLKPEDTAVYYCAAVKLFLGLCYDYWGQGTQVTVSS
- polyreactivity (PSR sort gate): low polyreactivity

Sequence: QVQLVETGGGLVQAGGSLRLSCDASGRIIRWYALGWYRQAPGKERELDAAITRSGSTFYADSVKWRFTISRDNAKNTVYLQMNSLKREDTADYYCNTCRWLYDTRYQFDEFDYWGQGTQVTVSS
- polyreactivity (PSR sort gate): high polyreactivity

Sequence: QVQLVESGGGLVQAGGSLRLSCAASGRTFGKNAMGWYRQAPGKERELVAAISWSGGRTYYADSVKGRFTISRDNAKNTVYLQMNSVKPVDTAVYYCATASYRNPSDYWGQGTQVTVSS
- polyreactivity (PSR sort gate): high polyreactivity

Sequence: QVQLVESGGGLVQAGGSLRLSCAASGSTFYSYAMGWYRQAPGKDRELVAAISSSSGTTYYADSVKGRFSISRDNAKTTVYLQMNSLKPEDTAVYYCNRGRRYSHKYDYWGQGTQVTVSS
- polyreactivity (PSR sort gate): high polyreactivity

Sequence: QVQLVESGGGLVQAGGSLRLSCAASGSINYYAMGWYRQAPVKERELVAAITRSGGGTYYADSVKGRFTISRDNAMNTVYLQMNSLIPEDTAVYYCAAARYSRAQPNWTYNYWGQGTQVTVSS
- polyreactivity (PSR sort gate): high polyreactivity

Sequence: QVQIVESVGGLVQAGGSLRLSCAASGRTFPYYAKGRYRQAPGKEREMVATISTADSTYYADSVKGRFTISRDNAKNTVYLQMNRLITEATEVYYCAKDRYTYWSVHAFRRLDYWGQGTQLTVSS
- polyreactivity (PSR sort gate): low polyreactivity

Sequence: QVQLVESGGGLVQAGGSLRLSCAASGSTFARNAMGWYRQAPGKEREFVATISSSGGRTYYADSVKGRFTISRDIAKNTVYLQMNSLNPEDTAVYYCNKALRTYPLFYYWGQGTQVTVSS
- polyreactivity (PSR sort gate): high polyreactivity

Sequence: QVQLVESGGGLVQAGGSLRLSCAASGSTFDSYAMGWSRQAPGKERELVARINDSGGSTYYADSVKGRFTISRDNAKNTVYLHMNSLKPEDTAVYYCNAYSWYFLPNMDYWGQGTQVTVSS
- polyreactivity (PSR sort gate): low polyreactivity

Sequence: QVQLVESGGGLVQAGGSLRLSCAASGSTFGRYAMGWYRQAPGKERELVAAISRGTTTNYADSVKGRFTIARDNAKNTVYLQMNSLKPEDTAVYYCAADQPSKRYYSWGQGTQVTVSS
- polyreactivity (PSR sort gate): low polyreactivity

Sequence: QVQLVESGGGLVQAGGSLRLSCAASGITFTFNAMGWYRQAPGKERELVAAITWSGGSTFYADSVKGRFTFSRDNAKNTVYLQMNSLKPEDTAVYYCARDTELYVRWLDYWVQGTQVTVSS
- polyreactivity (PSR sort gate): low polyreactivity

Sequence: QGQLVESGGGLVQAGGSLRLSCAASGLIFYKYAMGWYRQAPGKERELVAVISWSGGSTYYADSVKGRFTISRDNAKNTVYLQMNRLKPEDTAVYYCAADTSYYRIRGWFGRVDYGYWGQGTQVTVSS
- polyreactivity (PSR sort gate): high polyreactivity

Sequence: QVQLVESGGGLVQAGGSLRLSCAASGSIFTPYAMGWYRQAPGKERELVATISWSGGRTYYADSVKGRFTISRDNAKNTVYLQMNSLKPEDTAVYYCNADVLKYKFDYWGQGTQVTVSS
- polyreactivity (PSR sort gate): high polyreactivity

Sequence: QVQLVESGGGLLQAGGSLRLSCAASGSIFRYYAKGWYRQAPGKERELVAAISYSGGRTYYADSVKGRFTISRDNAKNTVYLQMNSLKPEDTAVYYCNAGAGKRGYDYWGQGTQVTVSS
- polyreactivity (PSR sort gate): low polyreactivity

Sequence: QVQLVESGGGLVQAGGSLRLSCAASGRTFGGNAMGWYRQAPGKERQLVASISSSGGRTYYAVSVKGRFTISRDNAKNTVYLQMNSLKPEDTAVYYCAVAWNVRGVGARQRYIYGYWGQGTQVTVSS
- polyreactivity (PSR sort gate): high polyreactivity

Sequence: QVQLVESGGGLVQAGGSLRLSCAASGSIFAAYTMGWYRQAPGKERELVAAISVSTVSTNYADSVQGRFTISRDNAKNTVFLQMNRLKPEDTAVYYCNADATDSYPEKDEHDSWGQGTEVTVSS
- polyreactivity (PSR sort gate): low polyreactivity

Sequence: QVQLVESGGGLVQAGGSLRLSCAASGSIFVIYALGWYRQAPGKERELVARITKSGGTTYYADSVKGRFTISRDNAKNTVYLQMNSLKPDDTAVYYCNVGYGGSSDGGYDYWGQGTQVTVSS
- polyreactivity (PSR sort gate): high polyreactivity

Sequence: QVQLVESGGGLVQAGGSLRLSCAASGSTLATNAMGWYRQAPGKERELVAYADSVKGRFTISRDNAKNTVYLQMNSLNPEDTAVYYCNVVFRYAYGVYYTPEFYYWGQGTQVTVSS
- polyreactivity (PSR sort gate): low polyreactivity

Sequence: QVQLVESGGGLVQAGGSLRLSCADSGRTFGGYAMGWYRQAPGKQRELVASITWSGGSTYYADSVKGRFTISRDNAKNNVYLQMNSLKPEDTAVYYCGARTYQSRSTRMDYWGQGTQVTVSS
- polyreactivity (PSR sort gate): low polyreactivity

Sequence: QDQLVESGGGLVQAGGSLRLSCASSGSIFSYNAMGWYRQAPGKEMELVAAISRGGSTYYADSVKGRFTISRDNAKNTVYLQMNSLKPDDTAVYYCAAYVYQLSYPAFEEGYWGQGTQVTVSS
- polyreactivity (PSR sort gate): low polyreactivity

Sequence: QVQLVESGGGLVQAGGSLRLSCAASGSTFAPNAMGWYRQAPGKEREFVATISASGGYTYYADSVKGRFTISRDNAKNTVYLQMNSLKPEDTAVYYCYAVWRVGRQLSQAKIPYDYWGQGTQVTVSS
- polyreactivity (PSR sort gate): low polyreactivity

Sequence: QVQLVESGGGLVQAGGSLRLSCAASGRIFRINGMGWYRQAPGKEREFVAAITSGGGTYYADSVKGRFTISRDNAKNTVYLQMNSLKPEDTAVYYCAAPSYRTRYYYWGQGTQVTVSS
- polyreactivity (PSR sort gate): high polyreactivity

Sequence: QVQLVESGGGLVQAGGSLRLSCAASGGTIAYAMGWYRQAPGKERELVAAISKHGGRTYYADSVKGRFTISRDNAKNTVYLQMNSLKPEDSAVYYCAADAFRGFYWGQGTQVTVSS
- polyreactivity (PSR sort gate): high polyreactivity

Sequence: QVQLVESGGGLVQAGGSLRLSCAASGITFYVYAMGWYRQAPGKERELVAAISRRGGSTSYADSVKGRFTISRDNAKNTVYLQMNSLKPEDTAVYYCAKDTTYYQVYGYGYDYWGQGTQVTVSS
- polyreactivity (PSR sort gate): low polyreactivity

Sequence: QFQLVESGGGLVQAGGSLRLSCAASGNTFYGYARGWYRQAPGKDRELVATMTGSGGDTYYADSVKGRFTISRDNANYTVYLPMNSLKPEDTAVYYCNAVEYYGGYPGTDYSYLAYNYWGQGTKVTVSS
- polyreactivity (PSR sort gate): low polyreactivity

Sequence: QVQLVESGGGLVQAGGSLRLSCAASGTFGYYTMGWYRQAPGHERELVAAITRSGGSTYDADSVKGRFTISRDNAKNTVYLQMNSLKPEDTAVYYCATELHAWSSWNRYRAYYYWGQGTQVTVSS
- polyreactivity (PSR sort gate): high polyreactivity

Sequence: QVQVVESGGGLVQAGGSLRLSCAASGRIFSHNAMGWYRQAPGNEWELVAGISSGGGTTYADSVKGRFTLSRDNAKNTVYLQMNSLKPEDTAVYYCNKQDQPVGRSGYPYGYDYWGQGTQVTVSS
- polyreactivity (PSR sort gate): low polyreactivity

Sequence: QVQLVDSGAGLVQAGGSLRLSCAASGSIYYRYALGWYRQAPRQVRELVAAITQSTDSTYYADSVKGRFTISRDNAKNTVYLQMNSLKPEDTAVYYCAAYLVYYRPYAYGYWGQGTQVTVSS
- polyreactivity (PSR sort gate): low polyreactivity

Sequence: QVQLVESGGGLVQAGGSLRLSCAASGRIFTRNAMGWYRQAPGKERELVAAISGTGGSTYYADSVKGRFTISRDNAKNTVYLQMNSLKPEDTAVYYCAASRARTRSAYNYWGQGTQVTVSS
- polyreactivity (PSR sort gate): high polyreactivity
